Assay [1] has as its target T1, hPDE5 mutants (Homo sapiens, UniProt O76074). Put plainly: GFP FACS analysis of hPDE5 mutant library clones in NIH3T3 cell pools. Particulars: experiment 1; for Stabilization ratio: GFP intensity 10 μM vardenafil vs DMSO; for Destabilizing mutation co-efficient: GFP intensity mutant vs PDE5 wildtype construct in absence of ligand; for MFI 10 μM VDF / MFI DMSO: GFP, NIH3T3 cell pools; for MFI 10 μM VDF: 10 μM vardenafil 24 hr; for MFI DMSO: no ligand (DMSO). A general note: Flow cytometry measures light scatter and fluorescence of single cells or particles in a stream.
Experimental: These constructs were packaged into lentivirus, transduced into NIH3T3 cells and select stable cell pools were derived as described below. […] Lentiviral stocks were used for transduction of NIH3T3 cells and subsequent cell pool selection. The day before transduction, NIH3T3 cells (1.8×10^6) were seeded in a T-25 flask and allowed to reach 60-70% confluency (˜1 day). The growth medium in the T-25 flask was then replaced with 1 mL virus (quickly thawed in a 37° C. water bath) and 5 μg/mL polybrene. […] Transduction medium was removed the following day and replaced with 5 mL fresh medium. At 48 hr after transduction, the medium was replaced with media containing 1 μg/mL puromycin. This puromycin medium was replaced every 3-4 days until cell pools were established (˜2 weeks).
The mean fluorescence intensity (MFI) of GFP at 100 μM concentration treatment was set as 100% hPDE5 stabilization effect (HPE), while DMSO treatment was set as 0% effect (ZPE) of hPDE5 stabilization. The effect of the compound on hPDE5 stabilization was calculated based on the following formula: % PDE5 stabilization effect=(MFI-ZPE)/(HPE-ZPE)×100.
Plots of the % effect versus concentration were generated with Graphpad Prism 5 and EC50 values were calculated using a four-parameter nonlinear regression model.
Select PDE5 clones from both experiment 1 and experiment 2 were directly compared. […] The stabilization ratio was calculated as the fold change in GFP intensity in ligand treated samples compared to treatment with DMSO (i.e. in the absence of ligand) with the same construct.

For assay [2], the target named is T1, hPDE5 mutants. Nature of the assay: GFP MFI by FACS in HCT116 cells transduced with hPDE5 constructs. The class given is cell-based. On the procedure:
(§1) Desirable qualities of a DD include, low expression of the SRE in the absence of ligand and ligand dependent stabilization of the SRE. Constructs were generated using DDs linked to GFP using an SG linker. […] The mean fluorescence intensity (MFI) of GFP was analyzed by FACS. […] Destabilizing mutation coefficient less than 1 are desirable.
(§2) Mean fluorescence intensity (MFI) was measured by FACS. […] Destabilizing mutation coefficient ratios less than 1 are desirable.
(§3) Mean fluorescence intensity (MFI) was measured by FACS. […] Destabilizing mutation co-efficient ratios less than 1 are desirable.
(§4) Mean fluorescence intensity (MFI) was measured by FACS. […] Destabilizing mutation coefficient less than 1 are desirable.
as §4
(§5) Mean fluorescence intensity (MFI) of GFP was measured by FACS.
(§6) Mean fluorescence intensity (MFI) was measured by FACS.
(§7) The media containing the ligand was removed and fresh media without the ligand was added.
(§8) The properties of the DDs were analyzed in the presence and absence of ligands via FACS as previously described.
(§9) GFP fluorescence was measured by FACS.
(§10) The properties of the DDs were analyzed via FACS both in the presence and absence of ligands.
as §9

Assay [3] relates to hPDE5 mutants. The assay is described as above. In kind it is cell-based, human. On the procedure: as §1, §2, §3, §4, §4, §5, §6, §7, §8, §9, §10, §9
Where [4] appears, read: Off-kinetics, time 50 hrs (ligand removed at 48 h).
The mark [5] stands for this setting: Off-kinetics, time 52 hrs (ligand removed at 48 h).
Where [6] appears, read: Off-kinetics, time 54 hrs (ligand removed at 48 h).
Where [7] appears, read: Off-kinetics, time 56 hrs (ligand removed at 48 h).
The mark [8] stands for this setting: Off-kinetics, time 60 hrs (ligand removed at 48 h).
Setting [9] is: Off-kinetics, time 72 hrs (ligand removed at 48 h).
Setting [10] is: Off-kinetics, time 80 hrs (ligand removed at 48 h).
Where [11] appears, read: Off-kinetics, time 96 hrs (ligand removed at 48 h).

Data on 15 substances can be found in patent US20220403001A1, “PDE5 DERIVED REGULATORY CONSTRUCTS AND METHODS OF USE IN IMMUNOTHERAPY” (Obsidian Therapeutics, Inc., priority 2018, published 2022).

Take “LibC000002: hPDE5 (Amino acid 535-860 of WT, I700F, E796G), DD generated by random mutagenesis”: in the assay with hPDE5 mutants [1], the “Stabilization ratio” value was found to be 3.2, the Destabilizing mutation co-efficient is given as 0.05, the “MFI 10 μM VDF” value is 981 and the “MFI DMSO” value is reported as 309.

In the case of “LibC000003: hPDE5 (Amino acid 535-860 of WT, D724G, K848N), DD generated by random mutagenesis”, in the assay with hPDE5 mutants [1], the “Stabilization ratio” value came to 2.9, the Destabilizing mutation co-efficient is reported as 0.11, the “MFI 10 μM VDF” value is given as 1870 and the “MFI DMSO” value is 656.

“LibC000007: hPDE5 (Amino acid 535-860 of WT, H613L, D724Y, F755Y), DD generated by random mutagenesis”: in the assay with hPDE5 mutants [1], the “Stabilization ratio” value is listed as 1.0, the Destabilizing mutation co-efficient was 0.04, the “MFI 10 μM VDF” value is recorded as 234 and the “MFI DMSO” value is given as 234.

With “LibC000010: hPDE5 (Amino acid 535-860 of WT, R658H), DD generated by random mutagenesis”, in the assay with hPDE5 mutants [1], the “Stabilization ratio” value is reported as 2.1, the Destabilizing mutation co-efficient is given as 1.17, the “MFI 10 μM VDF” value worked out at 13940 and the “MFI DMSO” value was determined as 6713.

With “LibC000011: hPDE5 (Amino acid 535-860 of WT, S562G, L727P, R847T), DD generated by random mutagenesis”, in the assay with hPDE5 mutants [1], the “Stabilization ratio” value was determined as 1.2, the Destabilizing mutation co-efficient is reported as 0.01, the “MFI 10 μM VDF” value amounted to 67 and the “MFI DMSO” value worked out at 57.

As to “LibC000014: hPDE5 (Amino acid 535-860 of WT, A767E), DD generated by random mutagenesis”, in the assay with hPDE5 mutants [1], the “Stabilization ratio” value is given as 2.8, the Destabilizing mutation co-efficient amounted to 0.44, the “MFI 10 μM VDF” value is reported as 6998 and the “MFI DMSO” value was 2500.

Take “LibC000016: hPDE5 (Amino acid 535-860 of WT, Q743L), DD generated by random mutagenesis”: in the assay with hPDE5 mutants [1], the “Stabilization ratio” value is recorded as 2.4, the Destabilizing mutation co-efficient is reported as 0.51, the “MFI 10 μM VDF” value came out at 6869 and the “MFI DMSO” value was found to be 2895.

As for “LibC000017: hPDE5 (Amino acid 535-860 of WT, Y709H, F787V), DD generated by random mutagenesis”, in the assay with hPDE5 mutants [1], the “Stabilization ratio” value is recorded as 2.9, the Destabilizing mutation co-efficient stood at 0.39, the “MFI 10 μM VDF” value came to 6530 and the “MFI DMSO” value worked out at 2244.

Regarding “LibC000018: hPDE5 (Amino acid 535-860 of WT, N605Y, I715K), DD generated by random mutagenesis”, in the assay with hPDE5 mutants [1], the “Stabilization ratio” value is 3.0, the Destabilizing mutation co-efficient is recorded as 0.18, the “MFI 10 μM VDF” value is 3102 and the “MFI DMSO” value was determined as 1038.

“LibC000019: hPDE5 (Amino acid 535-860 of WT, F564I, N662Y, H685L, L693P, F736I), DD generated by random mutagenesis”: in the assay with hPDE5 mutants [1], the “Stabilization ratio” value worked out at 0.9, the Destabilizing mutation co-efficient is recorded as 0.06, the “MFI 10 μM VDF” value amounted to 285 and the “MFI DMSO” value was found to be 320.

Consider “LibC000021: hPDE5 (Amino acid 535-860 of WT, V594I), DD generated by random mutagenesis”, for which, in the assay with hPDE5 mutants [1], the “Stabilization ratio” value was found to be 2.6, the Destabilizing mutation co-efficient amounted to 0.30, the “MFI 10 μM VDF” value is 4440 and the “MFI DMSO” value is recorded as 1732.

Regarding “LibC000023: hPDE5 (Amino acid 535-860 of WT, E858V), DD generated by random mutagenesis”, in the assay with hPDE5 mutants [1], the “Stabilization ratio” value is on record as 1.4, the Destabilizing mutation co-efficient was 0.77, the “MFI 10 μM VDF” value came to 6121 and the “MFI DMSO” value was 4386.

In the case of “LibC000024: hPDE5 (Amino acid 535-860 of WT, T784I), DD generated by random mutagenesis”, in the assay with hPDE5 mutants [1], the “Stabilization ratio” value worked out at 1.4, the Destabilizing mutation co-efficient amounted to 0.88, the “MFI 10 μM VDF” value is on record as 6905 and the “MFI DMSO” value worked out at 5039.

Turning to OT-001186: hPDE5 R732G AcGFP construct, in the assay with hPDE5 mutants [2] (hotspot constructs, HCT116), the “GFP by FACS, Sildenafil 10 μM” value turned out to be 288 and the “GFP by FACS, Vardenafil 1 μM” value is recorded as 854. Moreover, in the assay on hPDE5 mutants [3] (hotspot constructs, HCT116, DMSO control of Sildenafil), the “GFP by FACS, Sildenafil 0 μM (DMSO)” value came out at 298. In addition, in the assay with hPDE5 mutants [3] (hotspot constructs, HCT116, DMSO control of Vardenafil), the “GFP by FACS, Vardenafil 0 μM (DMSO)” value is recorded as 176.

Consider “OT-001216: hPDE5 wildtype construct linked to GFP”, for which the “Sildenafil Stabilization ratio” value with hPDE5 mutants [2] (10 μM, 48 h, HCT-116) came out at 1.03. Also, the “Vardenafil Stabilization ratio” value with hPDE5 mutants [2] (10 μM, 48 h, HCT-116) turned out to be 1.04. Moreover, in the assay with hPDE5 mutants [2] (GFP, 10 μM Sildenafil 48 h, HCT-116), the “MFI Sildenafil” value is recorded as 66860. In addition, in the assay with hPDE5 mutants [2] (GFP, 10 μM Vardenafil 48 h, HCT-116), the “MFI Vardenafil” value turned out to be 67388. For the same substance, the “MFI DMSO” value in the assay on hPDE5 mutants [3] (GFP, DMSO 48 h, HCT-116) was 64942. The Stabilization ratio in the assay on hPDE5 mutants [3] (Off-kinetics, time 48 hrs (after 48 h ligand treatment)) is reported as 2.24; with hPDE5 mutants [3] (setting [4]), 2.14; in the assay with hPDE5 mutants [3] (setting [5]), 2.12; in the assay with hPDE5 mutants [3] (setting [6]), 2.10; with hPDE5 mutants [3] (setting [7]), 1.80; with hPDE5 mutants [3] (setting [8]), 1.85. For the same substance, the Stabilization ratio was determined as 1.54 in the assay with hPDE5 mutants [3] (setting [9]); 1.39 with hPDE5 mutants [3] (setting [10]); 1.23 in the assay on hPDE5 mutants [3] (setting [11]); 1.22 with hPDE5 mutants [3] (Sildenafil 30 μM, 24 h, HCT116); 1.60 with hPDE5 mutants [3] (Tadalafil 100 μM, 24 h, HCT116); 1.14 in the assay with hPDE5 mutants [3] (Vardenafil 30 μM, 24 h, HCT116). Besides, the MFI in the assay on hPDE5 mutants [3] (Off-kinetics, time 48 hrs (after 48 h ligand treatment), HCT 116) worked out at 102137; in the assay with hPDE5 mutants [3] (setting [4]) it was 97225; with hPDE5 mutants [3] (setting [5]), 96264; with hPDE5 mutants [3] (setting [6]), 95410; in the assay on hPDE5 mutants [3] (setting [7]) it was 81733; with hPDE5 mutants [3] (setting [8]), 84323. Further, the MFI in the assay with hPDE5 mutants [3] (setting [9]) came to 70151; in the assay with hPDE5 mutants [3] (setting [10]), 63208; with hPDE5 mutants [3] (setting [11]), 55918; in the assay on hPDE5 mutants [3] (Sildenafil 30 μM, 24 h, HCT116) it was 75478; in the assay on hPDE5 mutants [3] (Tadalafil 100 μM, 24 h, HCT116), 58468; in the assay on hPDE5 mutants [3] (Vardenafil 30 μM, 24 h, HCT116), 70898.
